Values joined by “and” are separate entries in the source; they are usually repeats but may differ in a detail not shown here. Identical values can stand only once.
Columns and labels:
[1] = biological target: intercellular adhesion molecule-1 (ICAM-1) of epithelial cells (human (endogenous in primary tonsil, cervical and foreskin keratinocytes)) (UniProt P05362)
[2] = biological target: intercellular adhesion molecule-1 (ICAM-1) of epithelial cells (human (endogenous in primary tonsil, cervical and foreskin keratinocytes)) (UniProt P05362); remark: listed apart in the source

Chain of UniProt P05362 (P05362 28-532): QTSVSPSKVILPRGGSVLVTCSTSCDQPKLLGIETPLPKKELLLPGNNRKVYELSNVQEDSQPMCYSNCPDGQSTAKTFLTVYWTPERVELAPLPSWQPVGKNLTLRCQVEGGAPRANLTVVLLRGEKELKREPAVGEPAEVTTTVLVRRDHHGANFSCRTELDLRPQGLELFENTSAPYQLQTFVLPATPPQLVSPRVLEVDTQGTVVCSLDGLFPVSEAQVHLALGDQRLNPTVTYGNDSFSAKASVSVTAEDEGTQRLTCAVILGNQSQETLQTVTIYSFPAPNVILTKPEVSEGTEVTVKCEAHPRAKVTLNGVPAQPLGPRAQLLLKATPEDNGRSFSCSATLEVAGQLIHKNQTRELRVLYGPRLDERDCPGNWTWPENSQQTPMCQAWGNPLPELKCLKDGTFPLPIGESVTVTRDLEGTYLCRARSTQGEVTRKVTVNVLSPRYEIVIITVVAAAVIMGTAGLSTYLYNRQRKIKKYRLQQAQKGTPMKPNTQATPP

## lymphocyte receptor function-associated antigen-1 (LFA-1) (from UniProt P20701 26-1170; P05107 23-769) (complex)
[1]
  reduction of HIV-1 SF33 spread from AP and BL membranes of polarized cervical and foreskin epithelial cells to activated PBMC, in the presence of antibodies to LFA-1 and ICAM-1 (ELISA p24): 40% and 50%
  reduction of spread of R5-tropic HIV-1 SF170 from polarized cervical and foreskin epithelial cells to CD4+ T lymphocytes, in the presence of antibodies to LFA-1 and ICAM-1 (ELISA p24): 70%
  reduction of spread of X4-tropic HIV-1 92UG029 from polarized cervical and foreskin epithelial cells to CD4+ T lymphocytes, in the presence of antibodies to LFA-1 and ICAM-1 (ELISA p24): 50%
[2]
  reduction of HIV-1 SF33 spread from AP and BL surfaces of polarized tonsil epithelial cells to activated PBMC, in the presence of antibodies against ICAM-1 and LFA-1 (ELISA p24 of PBMC after 7 days): 65 to 70%
